Here are results for 94 variants from the supplement of paper PMC10567573.

B1: TRAF3IP2 (parent)
chain: PRPPSNPPARGTLKTSNLPEELRK
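Also: lentivirally expressed fusions sorted by FACS into six bins by GFP to DsRed ratio, PSI derived from sequencing read proportions per bin multiplied by bin number.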

Variants of B1 are the subject of the series. The experiment in a line: protein stability index of a GFP-peptide fusion (GPS, HEK-293T) (PSI 1-6); higher = more stable. The conditions noted are these: c terminus: a fixed tail appended.
For PRPPSFPPARGTLKTSNLPEELRK [N6F], the protein stability index amounted to 5.34.

PRPPSIPPARGTLKTSNLPEELRK [N6I]: the protein stability index is 4.62.

With PRPPSEPPARGTLKTSNLPEELRK [N6E], the protein stability index was determined as 5.15.

In the case of PRPPSSPPARGTLKTSNLPEELRK [N6S], the protein stability index was determined as 5.01.

For PRPPSDPPARGTLKTSNLPEELRK [N6D], the protein stability index stood at 4.8.

Take PRPPSTPPARGTLKTSNLPEELRK [N6T]: the protein stability index was found to be 4.69.

Consider PRPPSLPPARGTLKTSNLPEELRK [N6L], for which the protein stability index stood at 5.01.

With PRPPSYPPARGTLKTSNLPEELRK [N6Y], the protein stability index came out at 4.99.

For the variant PRPPSVPPARGTLKTSNLPEELRK [N6V], the protein stability index was 4.79.

Consider PRPPSHPPARGTLKTSNLPEELRK [N6H], for which the protein stability index amounted to 5.21.

For the variant PRPPSRPPARGTLKTSNLPEELRK [N6R], the protein stability index was found to be 4.49.

Take PRPPSQPPARGTLKTSNLPEELRK [N6Q]: the protein stability index turned out to be 4.78.

As to PRPPSKPPARGTLKTSNLPEELRK [N6K], the protein stability index is 4.72.

Consider PRPPSGPPARGTLKTSNLPEELRK [N6G], for which the protein stability index was determined as 4.65.

Regarding PRPPSWPPARGTLKTSNLPEELRK [N6W], the protein stability index stood at 5.83.

Take PRPPSMPPARGTLKTSNLPEELRK [N6M]: the protein stability index turned out to be 5.31.

Consider PRPPSAPPARGTLKTSNLPEELRK [N6A], for which the protein stability index was found to be 5.47.

As for PRPPSCPPARGTLKTSNLPEELRK [N6C], the protein stability index is 5.18.

PRVPSNPPARGTLKTSNLPEELRK [P3V]: the protein stability index worked out at 4.79.

In the case of PRWPSNPPARGTLKTSNLPEELRK [P3W], the protein stability index is 4.83.

Regarding PRRPSNPPARGTLKTSNLPEELRK [P3R], the protein stability index was 4.54.

For the variant PRTPSNPPARGTLKTSNLPEELRK [P3T], the protein stability index amounted to 4.9.

As for PRNPSNPPARGTLKTSNLPEELRK [P3N], the protein stability index turned out to be 4.29.

On to PRSPSNPPARGTLKTSNLPEELRK [P3S], for which the protein stability index was 4.95.

Turning to PRQPSNPPARGTLKTSNLPEELRK [P3Q], the protein stability index stood at 4.2.

For the variant PRYPSNPPARGTLKTSNLPEELRK [P3Y], the protein stability index turned out to be 4.7.

For the variant PRPVSNPPARGTLKTSNLPEELRK [P4V], the protein stability index came to 4.53.

In the case of PRPMSNPPARGTLKTSNLPEELRK [P4M], the protein stability index was 4.39.

As to PRPASNPPARGTLKTSNLPEELRK [P4A], the protein stability index amounted to 4.79.

Turning to PRPCSNPPARGTLKTSNLPEELRK [P4C], the protein stability index stood at 4.84.

For the variant PRPQSNPPARGTLKTSNLPEELRK [P4Q], the protein stability index was found to be 4.88.

Regarding PRPKSNPPARGTLKTSNLPEELRK [P4K], the protein stability index turned out to be 4.91.

Turning to PRPESNPPARGTLKTSNLPEELRK [P4E], the protein stability index was 4.52.

On to PRPTSNPPARGTLKTSNLPEELRK [P4T], for which the protein stability index was found to be 3.97.

For the variant PRPGSNPPARGTLKTSNLPEELRK [P4G], the protein stability index was found to be 4.54.

Regarding PRPISNPPARGTLKTSNLPEELRK [P4I], the protein stability index was found to be 4.66.

Take PRPFSNPPARGTLKTSNLPEELRK [P4F]: the protein stability index worked out at 4.25.

As for PRPRSNPPARGTLKTSNLPEELRK [P4R], the protein stability index was 4.49.

In the case of PRPWSNPPARGTLKTSNLPEELRK [P4W], the protein stability index was 4.61.

For PRPLSNPPARGTLKTSNLPEELRK [P4L], the protein stability index came to 4.58.

PRPDSNPPARGTLKTSNLPEELRK [P4D]: the protein stability index worked out at 4.7.

In the case of PRPHSNPPARGTLKTSNLPEELRK [P4H], the protein stability index was found to be 4.5.

Consider PRPNSNPPARGTLKTSNLPEELRK [P4N], for which the protein stability index is 4.7.

For the variant PRPSSNPPARGTLKTSNLPEELRK [P4S], the protein stability index came to 4.89.

With PRPYSNPPARGTLKTSNLPEELRK [P4Y], the protein stability index came out at 4.43.

As for PRPPSNPGARGTLKTSNLPEELRK [P8G], the protein stability index stood at 4.82.

Take PRPPSNPHARGTLKTSNLPEELRK [P8H]: the protein stability index worked out at 3.56.

Take PRPPSNPDARGTLKTSNLPEELRK [P8D]: the protein stability index is 4.99.

On to PRPPSNPEARGTLKTSNLPEELRK [P8E], for which the protein stability index came out at 4.81.

Consider PRPPSNPNARGTLKTSNLPEELRK [P8N], for which the protein stability index worked out at 4.82.

On to PRPPSNPLARGTLKTSNLPEELRK [P8L], for which the protein stability index amounted to 4.69.

With PRPPSNPIARGTLKTSNLPEELRK [P8I], the protein stability index stood at 4.72.

On to PRPPSNPMARGTLKTSNLPEELRK [P8M], for which the protein stability index is 4.76.

Consider PRPPSNPFARGTLKTSNLPEELRK [P8F], for which the protein stability index came out at 4.43.

For PRPPSNPKARGTLKTSNLPEELRK [P8K], the protein stability index was 4.99.

As for PRPPSNPCARGTLKTSNLPEELRK [P8C], the protein stability index was determined as 4.48.

Regarding PRPPSNPAARGTLKTSNLPEELRK [P8A], the protein stability index stood at 5.06.

For PRPPNNPPARGTLKTSNLPEELRK [S5N], the protein stability index was 4.63.

For the variant PRPPANPPARGTLKTSNLPEELRK [S5A], the protein stability index turned out to be 4.32.

In the case of PRPPFNPPARGTLKTSNLPEELRK [S5F], the protein stability index amounted to 4.45.

For PRPPINPPARGTLKTSNLPEELRK [S5I], the protein stability index came to 4.75.

Take PRPPTNPPARGTLKTSNLPEELRK [S5T]: the protein stability index came out at 4.56.

Regarding PRPPGNPPARGTLKTSNLPEELRK [S5G], the protein stability index worked out at 4.89.

For the variant PRPPDNPPARGTLKTSNLPEELRK [S5D], the protein stability index worked out at 3.83.

As for PRPPENPPARGTLKTSNLPEELRK [S5E], the protein stability index was 4.55.

Turning to PRPPCNPPARGTLKTSNLPEELRK [S5C], the protein stability index turned out to be 4.28.

As for PRPPKNPPARGTLKTSNLPEELRK [S5K], the protein stability index was found to be 4.21.

For the variant PRPPQNPPARGTLKTSNLPEELRK [S5Q], the protein stability index came to 4.45.

Take PRPPWNPPARGTLKTSNLPEELRK [S5W]: the protein stability index is 3.98.

Regarding PRPPHNPPARGTLKTSNLPEELRK [S5H], the protein stability index was 4.38.

Turning to PRPPYNPPARGTLKTSNLPEELRK [S5Y], the protein stability index was 3.84.

On to PRPPVNPPARGTLKTSNLPEELRK [S5V], for which the protein stability index was determined as 4.76.

On to PRPPLNPPARGTLKTSNLPEELRK [S5L], for which the protein stability index is 4.19.

As for PRPPMNPPARGTLKTSNLPEELRK [S5M], the protein stability index amounted to 5.

Turning to PRPPRNPPARGTLKTSNLPEELRK [S5R], the protein stability index was determined as 4.36.

For PRPPSNTPARGTLKTSNLPEELRK [P7T], the protein stability index turned out to be 4.76.

Regarding PRPPSNIPARGTLKTSNLPEELRK [P7I], the protein stability index worked out at 4.5.

Turning to PRPPSNQPARGTLKTSNLPEELRK [P7Q], the protein stability index was found to be 4.56.

Turning to PRPPSNMPARGTLKTSNLPEELRK [P7M], the protein stability index came out at 4.09.

As to PRPPSNHPARGTLKTSNLPEELRK [P7H], the protein stability index was 4.27.

On to PRPPSNEPARGTLKTSNLPEELRK [P7E], for which the protein stability index came out at 4.81.

For the variant PRPPSNAPARGTLKTSNLPEELRK [P7A], the protein stability index amounted to 4.8.

Consider PRPPSNFPARGTLKTSNLPEELRK [P7F], for which the protein stability index was 4.21.

For PRPPSNYPARGTLKTSNLPEELRK [P7Y], the protein stability index was determined as 4.05.

PRPPSNWPARGTLKTSNLPEELRK [P7W]: the protein stability index was 4.02.

For PRPPSNSPARGTLKTSNLPEELRK [P7S], the protein stability index is 4.89.

Take PRPPSNDPARGTLKTSNLPEELRK [P7D]: the protein stability index is 4.97.

On to PRPPSNVPARGTLKTSNLPEELRK [P7V], for which the protein stability index turned out to be 4.11.

For the variant PRPPSNNPARGTLKTSNLPEELRK [P7N], the protein stability index came to 5.17.

For the variant PRPPSNLPARGTLKTSNLPEELRK [P7L], the protein stability index came to 4.83.

In the case of PRPPSNKPARGTLKTSNLPEELRK [P7K], the protein stability index is 4.53.

In the case of PRPPSNGPARGTLKTSNLPEELRK [P7G], the protein stability index was 4.58.

Regarding PRPPSNRPARGTLKTSNLPEELRK [P7R], the protein stability index was 4.75.

As to PRPPSNCPARGTLKTSNLPEELRK [P7C], the protein stability index was found to be 4.4.
